In publication PMC3732525 (DNA repair, 2013):

Target: the molecule itself
Assay: SEC

B1: S. cerevisiae Dmc1 (ScDmc1), N-terminally (His)6-tagged (natural protein, UniProt P25453 1-334, looked up)
chain: MSVTGTEIDSDTAKNILSVDELQNYGINASDLQKLKSGGIYTVNTVLSTTRRHLCKIKGLSEVKVEKIKEAAGKIIQVGFIPATVQLDIRQRVYSLSTGSKQLDSILGGGIMTMSITEVFGEFRCGKTQMSHTLCVTTQLPREMGGGEGKVAYIDTEGTFRPERIKQIAEGYELDPESCLANVSYARALNSEHQMELVEQLGEELSSGDYRLIVVDSIMANFRVDYCGRGELSERQQKLNQHLFKLNRLAEEFNVAVFLTNQVQSDPGASALFASADGRKPIGGHVLAHASATRILLRKGRGDERVAKLQDSPDMPEKECVYVIGEKGITDSSD
binding result: binds
